Experimental data taken from publication PMC3928677 (Science (New York, N.Y.), 2013).
Several values for one entry are separate records, joined by “and”; a condition that tells them apart may be missing. Identical values can stand only once. Like-named read-outs stand apart in the source and are kept apart here.

Key:
RseB = target: T1, RseB (Escherichia coli, UniProt P0AFX9); experiment: fluorescence anisotropy, displacement of fluorescent RseA^P; format: binding
T1 sequence (P0AFX9 24-318): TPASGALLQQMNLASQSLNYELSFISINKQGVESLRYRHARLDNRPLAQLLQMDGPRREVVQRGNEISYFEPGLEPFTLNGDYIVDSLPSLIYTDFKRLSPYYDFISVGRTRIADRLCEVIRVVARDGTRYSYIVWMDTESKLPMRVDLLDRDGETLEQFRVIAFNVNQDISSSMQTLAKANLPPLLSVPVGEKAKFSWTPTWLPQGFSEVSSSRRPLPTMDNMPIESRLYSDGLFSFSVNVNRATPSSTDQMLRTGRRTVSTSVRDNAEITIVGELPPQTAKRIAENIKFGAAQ

SEC [1] = target: the molecule itself; experiment: SEC
SEC [2] = target: the molecule itself; experiment: SEC; remark: listed apart in the source

Molecule: CCCCCCCCCCC[C@@H](O)CC(=O)N[C@H]1[C@H](OC[C@H]2O[C@H](OP(=O)(O)O)[C@H](NC(=O)C[C@H](O)CCCCCCCCCCC)[C@@H](O)[C@@H]2O)O[C@H](CO)[C@@H](OP(=O)(O)O)[C@@H]1O [L-IIA]
- EC50 (RseB): ~65 µM

B1: MucB (natural protein, Pseudomonas aeruginosa, UniProt P38108 22-316, looked up)
chain: ADASDWLNRLAEADRQNSFQGTFVYERNGSFSTHEIWHRVESDGAVRERLLQLDGARQEVVRVDGRTQCISGGLADQLADAQLWPVRKFDPSQLASWYDLRLVGESRVAGRPAVVLAVTPRDQHRYGFELHLDRDTGLPLKSLLLNEKGQLLERFQFTQLNTGAAPAEDQLQAGAECQVVGPAKADGEKTVAWRSEWLPPGFTLTRSFMRRSPVTPDPVACLTYGDGLARFSVFIEPLHGAMVGDARSQLGPTVVVSKRLQTDDGGQMVTVVGEVPLGTAERVALSIRPEAAAQK
modifications: 35S label (in the elution assay from MucA^P-agarose only)
- stoichiometry N (SEC [1]): 4 and 2

B2: RseB (natural protein, E. coli, UniProt P0AFX9 24-318, looked up)
chain: T1 sequence (P0AFX9 24-318)
modifications: 35S label (in the elution assay from RseA^P-agarose only)
- stoichiometry N (SEC [1]): 4
- stoichiometry N (SEC [2]): 2
